The source of these data is patent publication US20180044415A1 (AbbVie / Abbott, published 2018).

The assay addresses T1, human DLL3 (immobilized human DLL3 or h293-hDLL3 cells) (human, UniProt Q9NYJ7 27-492, limits assumed).
T1 construct: the sentence says 'immobilized human DLL3 or h293-hDLL3 cells'
T1 sequence: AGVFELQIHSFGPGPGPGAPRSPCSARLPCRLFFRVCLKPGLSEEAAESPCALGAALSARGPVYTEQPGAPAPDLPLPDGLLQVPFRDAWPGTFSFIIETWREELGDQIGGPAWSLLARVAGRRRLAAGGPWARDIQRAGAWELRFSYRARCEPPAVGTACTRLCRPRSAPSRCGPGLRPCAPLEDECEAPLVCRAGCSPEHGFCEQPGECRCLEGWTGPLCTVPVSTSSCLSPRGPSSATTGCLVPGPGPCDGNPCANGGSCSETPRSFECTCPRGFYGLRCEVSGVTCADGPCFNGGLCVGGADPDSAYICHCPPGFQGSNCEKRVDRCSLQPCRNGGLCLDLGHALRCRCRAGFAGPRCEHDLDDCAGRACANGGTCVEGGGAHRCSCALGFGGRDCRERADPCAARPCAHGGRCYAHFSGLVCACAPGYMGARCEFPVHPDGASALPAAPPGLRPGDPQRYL
Briefly: hybridoma screening on immobilized human DLL3 or on h293-hDLL3 cells.

B1: SC16.113 (antibody, V domains shown)
VH: DVKLVESGGGLVKPGGSLKLSCAASGFTFSSYTMSWVRQTPEKRLEWVATISSGGSYPYYPDSVKGRFTISRDNAKNTLYLQMSSLKSEDTAMYYCTRDVYDGYSYWGQGTTLTVSS
VL: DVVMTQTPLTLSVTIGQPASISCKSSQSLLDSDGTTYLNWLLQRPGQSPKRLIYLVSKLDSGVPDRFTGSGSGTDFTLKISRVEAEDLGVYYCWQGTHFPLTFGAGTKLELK
notes: murine mAb; variable regions only
B1: the binding result is reported as “binds”.

B2: SC16.115 (antibody, V domains shown)
VH: DVKLVESGGGLVKPGGSLKLSCAASGFTFSSYTMSWVRQTPEKRLEWVATISSGGSYPYYPDSVKGRFTISRDNAKNTLYLQMSSLKSEDTAMYYCTRDVYDGYSYWGQGTTLTVSS
VL: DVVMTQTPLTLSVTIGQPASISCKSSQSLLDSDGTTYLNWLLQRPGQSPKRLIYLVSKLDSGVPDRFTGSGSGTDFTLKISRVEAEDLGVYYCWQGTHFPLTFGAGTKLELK
notes: as for B1
On to B2, for which the binding result is “binds”.

B3: SC16.88 (antibody, V domains shown)
VH: QVQLQQSGAELARPGASVKLSCKASGYTCTSYWMQWVKQRPGQGLEWIGAIYPGDGDTRYTQKFKGKATLTADKSSSTAYMQLSSLASEDSAVYYCARGRRTEAWFAYWGQGTLVTVSA
VL: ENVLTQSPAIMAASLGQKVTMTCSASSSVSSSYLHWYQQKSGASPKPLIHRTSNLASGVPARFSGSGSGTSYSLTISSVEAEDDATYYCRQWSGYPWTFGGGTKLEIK
notes: as for B1
As to B3, the binding result is “binds”.

B4: SC16.109 (antibody, V domains shown)
VL: QIVLTQSPAIMSASPGEKVTMTCSASSSVSYMYWYQQKPGSSPRLLIYDTSNLASGVPVRFSGSGSGTSFSLTISRMEAEDTATYYCQEWSGNPLTFGDGTKLELK
V domain: QIQLVQSGPELKKPGETVKISCKASGYTFTNYGMNWVKQAPGKGLKWMGWINTYTGEPAYADDFKGRFAFSLETSASAAYLQINNLKNEDTATFFCANMRPTRGFAYWGQGTLGTVSA
notes: as for B1
Consider B4, for which the binding result is given as “binds”.

B5: SC16.101 (antibody, V domains shown)
VL: QIVLTQSPAIMSASLGERVTMTCTASSSVSSSYLHWYQQKPGSSPKLWIYSTSNLASGVPARFSGSESGTSYSLTISNMEAEDAATYYCHQYHRSPFTFGSGTKLEIK
V domain: QVTLKESGPGILQPSQTLSLTCSFSGFSLSTSGMGVGWIRQPSGKGLEWLAHIWWDDVKRYNPALKSRLTISKDASSSQVFLKIASVDTAETATYYCAHILDRAYYFDYWGQGTTLTVTS
notes: as for B1
For B5, the binding result is on record as “binds”.

B6: SC16.116 (antibody, V domains shown)
VH: QVQLKQSGPGRVQPSQSLSITCTVSGFSLTSNGVHWVRQSPGKGLEWLGVLWSGGSTDYNAAFISRLSISKDNYKSQVFFKMNSLQANDTAIYYCARNNNRYGAMDYWGQGTSVTVSS
VL: DIVMTQSPSSLTVTAGEKVTMSCTSSQSLLTSGNQKNYLTWYQQKPGQPPKLLIYWASTRESGVPDRFTGSGSGTDFTLTISSLQAEDLAVYYCQNDYSLTFGAGTKLELK
notes: as for B1
Regarding B6, the binding result is reported as “binds”.

B7: SC16.105 (antibody, V domains shown)
VH: QVQLQQPGAELVKPGASVKLSCKASGYTFTSYWMHWVKQRPGQGLEWIGVINPSNGRTNYNEKFKSKATLTVDKSSSTAYMQLSSLTSEDSAVYYCARRRELGTLYAMDYWGQGTSVTVSS
VL: DIVMTQSHKFMSTSVGDRVSITCKASQDVGTAVAWYQQKPGQSPKLLIYWASIRHTGVPDRFTGSGSGTDFTLTISNVQSEDLADYFCQQYSSYPLTFGAGTKLELK
notes: as for B1
Turning to B7, the binding result is “binds”.

B8: SC16.103 (antibody, V domains shown)
VH: QVTLKESGPGILKPSQTLSLTCSFSGFSLSTSGMGIGWIRQPSGKGLEWLAHIWWDDDKYYNPSLKSQLTISKDSSRNQVFLKITSVDTADTATYYCARRGTAYYFDYWGQGTTLTVSS
VL: DIVLTQSPASLAVSLGQRATISCRASKSVSTSGYSYMHWYQQKPGQPPKLLIYLASNLESGVPARFSGSGSGTDFTLNIHPVEEEDAATYYCQHSRELPLTFGAGTKLELK
notes: as for B1
On to B8, for which the binding result was “binds”.

B9: SC16.104 (antibody, V domains shown)
VH: QVQLKESGPDLVQPSQTLSLTCTVSGFSLTFYGVHWVRQPPGKGLEWVGTMGWDDKKYYNSALKSRLSISRDTSKNQVFLKLSSLQTEDTAMYYCTRGGTGFDYWGQGTTLTVSS
VL: QIVLSQSPAILSASPGEKVTMTCRASSSVSYIHWYRQKPGSSPKPWIYATSNLASGVPARFSGSGSGTSYSLTISRVEAEDAATYYCQQWSSNPPTFGAGTKLELK
notes: as for B1
B9: the binding result is reported as “binds”.

B10: SC16.114 (antibody, V domains shown)
VH: EVQLQQSGAELVKPGASVKLSCTASGFNIKDTYIHWVKQRPEQGLEWIGRIDPANGNTKYDPKFQGKATITPDTSSNTAYLQLSSLTSEDTAVYYCARSWRNYGSSFWYFDVWGAGTTVTVSS
VL: QIVLSQSPAILSASPGEKVTMTCRASSSVSYMHWYQQKPGSSPKPWIYATSNLASGVPARFSGSGSGTSYSLTISRVEAEDAATYYCQQWSSNPYTFGGGTKLEIK
notes: as for B1
Consider B10, for which the binding result is reported as “binds”.

B11: SC16.117 (antibody, V domains shown)
VH: QVQLKESGPGLVAPSQSLSITCTVSGFSLTNYGVHWVRQPPGKGLEWLGVIWAGGITNYNSALMSRLSISEDNSKSQVFLKMNSLQTDDTAMYYCARNLGPYAMDYWGQGTSVTVSS
VL: DIQMNQSPSSLSASLGDTITITCHVSQNINVWLSWYQQKPGNIPKLLIQKASNLHTGVPSRFSGSGSGTGFTLTISSLQPEDIATYYCQQGQSYPFTFGSGTKLEIK
notes: as for B1
Take B11: the binding result was “binds”.

B12: SC16.110 (antibody, V domains shown)
VH: EVQLQQSGPGLVRTGASVKISCKASGYSFTGYYMHWVKQSHGKSLEWIGYISCYNGATTYNQNFKGKATFIVDTSSSTAYMQFNSLTSEDSAVYYCARSDGGHAMDYWGQGTSVTVSS
VL: NIVMTQTPKFLLVSAGDRVTITCKASQSVSNDVAWYQQKPGQSPKLLIYYASNRYTGVPDRFTGSGYGTDFTFTISTVQAEDLAVYFCQQDYSSPPTFGGGTKLEIK
notes: as for B1
With B12, the binding result is recorded as “binds”.

B13: SC16.107 (antibody, V domains shown)
VH: EVQLQQSGPELVKPGASVKMSCKASGYTFTNYVMHWVKQKPGQGLEWIGYINPYNDGTKYNEKFKGKATLTSDKSSTTAYMALSSLTSEDSAVYYCAVAYYSNWGFAYWGQGTLVTVSA
VL: DIVMTQSHKFMSTSVGDRVSITCKASQDVNTAVGWYQQKPGQSPKLLIYSASYRYTGVPDRFTGSGSGTDFTFTISSVQAEDLAVYYCQQHYSSPYTFGGGTKVEIK
notes: as for B1
In the case of B13, the binding result is listed as “binds”.

B14: SC16.139 (antibody, V domains shown)
VH: EVQLQQSGPELVKPGASVKMSCKASGYTFTNYVMHWVKQKPGQGLEWIGYINPYNDGTKYNEKFKGKATLTSDKSSTTAYMALSSLTSEDSAVYYCAVAYYSNWGFAYWGQGTLVTVSA
VL: DIVMTQSHKFMSTSVGDRVSITCKASQDVNTAVGWYQQKPGQSPKLLIYSASYRYTGVPDRFTGSGSGTDFTFTISSVQAEDLAVYYCQQHYSSPYTFGGGTKLEIK
notes: as for B1
Turning to B14, the binding result was “binds”.

B15: SC16.106 (antibody, V domains shown)
VH: QVQLKQSGPGLVAPSQSLFITCTVSGFSLTSYEINWVRQPPGKGLEWLGVIWTGGSTNYNSALISRLSISKDNSKSLVFLKMNSLQTDDTAIYYCVRGVYAMDYWGQGTSVTVSS
VL: DIKMTQSPSSMYASLGERVTITCKASQDINSYLSWFQQKPGKSPKTLIYRANRLVDGVPSRFSGSGSGQDYSLTISSLEYEDMGIYYCLQYDEFPFTFGSGTKLEIK
notes: as for B1
For B15, the binding result is “binds”.

B16: SC16.118 (antibody, V domains shown)
VH: EVQLQQSGPDLVKPGASVKISCKASGYSFTGYYMHWVKQSHGKSLEWIGRVNPNNGGTSYNQKFKGKAILTADKSSSTAYMELRSLTSEDSAVYYCARGSYDYAEGWGQGTLVTVSA
VL: DIVLTQSPASLAVSLGQRATISCKASQSVDYDGDSYLTWYQQKPGQPPKLLIYAASNLESGIPARFSGSGSGTDFTLNIHPVEEEDAATYYCQQSNEDPYTFGGGTKLEIK
notes: as for B1
In the case of B16, the binding result is “binds”.

B17: SC16.134 (antibody, V domains shown)
VH: EVQLQQSGPDLVKPGASVKISCKASGYSFTGYYMHWVKQSHGKRLEWIGRVNPNNGGTNYNQKFKGKAILTVDKSSSTAYMELRSLTSEDSAVYYCARGSYDNAEGWGQGTLVTVSA
VL: DIVLTQSPASLAVSLGQRATISCKASQSVDHAGDSYMNWYQQKPGQPPKLLIYAASNLESGIPARFSGSGSGTDFTLNIHPVEEEDAATYYCQQSNEDPYTFGGGTKLEIK
notes: as for B1
In the case of B17, the binding result is on record as “binds”.

B18: SC16.121 (antibody, V domains shown)
VH: EVQLVESGGGLVQPKGSLKLSCAASGFTFNTYAMNWVRQAPGKGLEWVARIRIKSNNYATYYADSVKDRFTISRDDSQNMLYLQMNNLKTEDTAVYYCVRQGYSYDWGPWFAYWGQGTLVTVSA
VL: QIVLTQSPAIMSASPGEKVTITCSASSSVSYMHWFQQKPGTSPKLWIYSTSNLASGVPARFSGSGSGTSYSLTISRMEAEDAATYYCQQRSSYPPTFGGGTKLEIK
notes: as for B1
As to B18, the binding result was “binds”.

B19: SC16.84 (antibody, V domains shown)
VH: EVQLQQSGPELVKPGASMKISCKASGYSFTGYTMNWVKQSHGKNLEWIGLINPYNGGTTYNQKFKGKATLTVDKSSSTAYMELLSLTSEDSAVYYCALGYYGNYRRYFDVWGAGTTVTVSS
VL: DIQMTQSPSSLSASLGGKVTITCKASQDIKKYIAWYQHKPGKGPRLLIHYTSTLEPGIPSRFSGSGSGRDYSFSISNLEPEDIATYYCLQYDILWTFGGGTKLEIK
notes: as for B1
As for B19, the binding result is on record as “binds”.

B20: SC16.111 (antibody, V domains shown)
VH: EVQLQQSGPELEKPGASVKISCKASGYSFTGYNMNWVKQSNGKSLEWIGNIDPYYGGSSYKQKFEGKATLTVDKSSSTAYMQLKSLTSEDSAVYYCARGGSNFFDYWGQGTTLTVSS
VL: DIQMTQSPASLAASVGETVTITCRASENIYYSLAWYQQKQGKSPQLLIYNANSLEDGVPSRFSGSGSGTQYSMKINSMQPEDTATYFCKQTYDVPLTFGAGTKLELK
notes: as for B1
As for B20, the binding result is “binds”.
